Two molecules from patent CN115975019A (INST PATHOGEN BIOLOGY CAMS, dated 2023) can be followed below.

What is called EC50 is the midpoint of the concentration-response curve.

For this assay, the target named is T1, SARS-CoV-2 刺突ECD蛋白 (Sinobiological) (SARS-CoV-2, UniProt P0DTC2 14-1213).
T1 construct: extracellular domain; also called Spike ECD蛋白
In words: ELISA, spike ECD coated 50 ng/well, antibody titrated. On the technique in general: ELISA stands for enzyme-linked immunosorbent assay.

B1: A46抗体 (antibody, V domains shown)
VH: EVQLLESGGGLIQPGGSLRLSCAVSEFIVSRNYMSWVRQAPGKGLEWVSVLYPGGSTFYADSVKGRFTISRDESTNTLFLQMNTLRVEDTAVYYCARDFGDFYFDFWGQGTLVTVSS
VL: EIVLTQSPGTLSLSPGQRAALSCRASQSVSTYLAWYQQKPGQAPRLLIHDASSRASGVPDRFSGTGSGTDFTLTITRLEPEDFAVYYCQQYGTSPRTFGQGTKLEIK
notes: also called 抗体A46
In turn, B1 yielded an EC50 of 0.0261 µg/mL.

B2: A70抗体 (antibody, V domains shown)
VH: QITLKESGPTLVKPTQTLTLTCTFSGFSLDTPGVAIGWIRQPPGRALEWLGLIYWDGDERYNPSLTSRVTLTKDTSKNQVVLTMTNVDSVDTGTYFCGHKTIPTIFGVWGQGAPVTVSS
VL: QSALTQPASVSGSPGQSITISCAATSGDFGVFNYVSWYQQHPGKAPKLIIFEVSSRPSGVSNRFSGSKSGNTASLTVSGLQAEDEAVYHCSSYSTSSVVFGGGTKLTVL
notes: also called 抗体A70
B2 gave an EC50 of 0.0351 µg/mL.
